Target: TSG101 (UniProt Q99816)
Assay: cell-based or functional assay

Sequence of UniProt Q99816 (Q99816 2-390 limits assumed): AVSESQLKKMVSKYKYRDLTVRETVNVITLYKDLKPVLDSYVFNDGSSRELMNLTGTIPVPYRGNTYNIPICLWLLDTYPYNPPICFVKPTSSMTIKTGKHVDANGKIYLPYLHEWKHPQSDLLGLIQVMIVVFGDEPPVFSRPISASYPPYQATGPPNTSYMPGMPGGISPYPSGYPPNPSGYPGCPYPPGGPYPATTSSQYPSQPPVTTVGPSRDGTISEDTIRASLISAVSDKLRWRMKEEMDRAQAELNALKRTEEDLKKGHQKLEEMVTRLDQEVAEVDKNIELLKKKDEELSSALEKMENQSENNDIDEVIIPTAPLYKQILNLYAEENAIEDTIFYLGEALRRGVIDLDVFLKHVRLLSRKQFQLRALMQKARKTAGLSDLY

| Substance | release of HIV-1 from transfected 293T cells | release of HIV-1 from transfected 293T cells, repeated experiments |
| --- | --- | --- |
| Vps28 mutant with deletion of amino acids 126 to 167, C-terminal Flag tag (from UniProt Q9UK41 1-125; Q9UK41 168-221) | 63 % inhibition |  |
| Vps28 mutant with deletion of the N-terminal 27 amino acids, C-terminal Flag tag (from UniProt Q9UK41 28-221) | 72 % reduction |  |
| Vps28ΔC, C-terminal 43-amino acid deletion mutant of Vps28, C-terminal Flag tag (from UniProt Q9UK41 1-178) | 67 % reduction | 53 to 75 % inhibition |

— patent US8021833
